Assay results reported in article doi:10.1101/2025.03.18.643923, “Widely used CaMKII regulatory segment mutations cause tight actinin binding and dendritic spine enlargement in unstimulated neurons” (bioRxiv, 2025).

B1: CaMKIIα 290-309 peptide WT (peptide, UniProt P11275 290-309, looked up)
peptide: LKKFNARRKLKGAILTTMLA
notes: CaMKIIα regulatory segment, residues 290-309; Probably a synthetic peptide; also called WT CaMKIIα 290-309; N-terminally shifted regulatory segment peptide (WT)
B2: CaMKIIα 290-309 peptide AA (T305A/T306A) (peptide, UniProt P11275 290-309, looked up)
peptide: LKKFNARRKLKGAILAAMLA
notes: CaMKIIα regulatory segment, residues 290-309; Probably a synthetic peptide; also called AA CaMKIIα 290-309; N-terminally shifted regulatory segment peptide (AA)
B3: CaMKIIα 294-315 peptide T305A/T306A (peptide, UniProt P11275 294-315, looked up)
peptide: NARRKLKGAILAAMLATRNFSG
notes: Probably a synthetic peptide; also called AA isolated regulatory segment
B4: CaMKIIα 294-315 peptide T306A (peptide, UniProt P11275 294-315, looked up)
peptide: NARRKLKGAILTAMLATRNFSG
notes: Probably a synthetic peptide; also called T306A regulatory segment
B5: CaMKIIα 294-315 peptide T305A (peptide, UniProt P11275 294-315, looked up)
peptide: NARRKLKGAILATMLATRNFSG
notes: Probably a synthetic peptide; also called T305A regulatory segment

Biological target: T1, Human α-actinin-2 EF3-4 (positions 827-894) (human, UniProt P35609 827-894)
T1 construct: α-actinin-2, human, third and fourth EF hands, positions 827-894; also called α-actinin-2 EF hands 3-4; source: E. coli Rosetta pLysS, purified (Ni-NTA, Glutathione Sepharose, Tev cleavage, Superdex 75); not shown: His, N-terminal, cleaved; GST, N-terminal, cleaved
Test: ITC; MicroCal PEAQ, 25 °C, 25 mM HEPES pH 7.5, 150 mM NaCl; syringe 500 μM CaMKIIα peptide, cell 50 μM EF3-4; single site binding model
Conditions: both partners purified

T1 sequence (P35609 827-894): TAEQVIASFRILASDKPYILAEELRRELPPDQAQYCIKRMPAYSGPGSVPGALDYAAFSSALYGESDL

Row | Binder | Kd
1 | B1 | 3.46 ± 0.08 µM
2 | B2 | 0.146 ± 0.012 µM
3 | B3 | 14.7 ± 1.2 µM
4 | B4 | 19.8 ± 1.9 µM
5 | B5 | 19.4 ± 0.7 µM
